β-galactosidase activity (Miller units) data for three substances are collected here from publication PMC8268110.

The target of assay [1] is Nrl1 (full length), BACTH fusion (S. pombe) (UniProt O42975). The assay can be described thus: two-hybrid; bacterial two-hybrid (BACTH) in E. coli BTH101; Nrl1 or its truncations in pUT18C, RNA-processing factors in pKT25; β-galactosidase activity assay at 28 °C in Miller units; eight biological replicates.
Assay [2] has as its target Nrl1(C-term), C-terminal region (493–972 aa), BACTH fusion (S. pombe) (UniProt O42975). The assay is described as above.
Assay [3] addresses Nrl1 (full length), BACTH fusion (S. pombe) (UniProt O42975). The assay is described as follows: two-hybrid; bacterial two-hybrid (BACTH) in E. coli BTH101; full-length ORFs in pUT18C and pKT25, both combinations; X-gal/IPTG plates and β-galactosidase activity assay at 28 °C in Miller units; eight biological replicates.
Assay [4] deals with Nrl1(N-term + NRDE-2), N-terminus with NRDE2 domain (1–492 aa), BACTH fusion (S. pombe) (UniProt O42975). The assay can be described thus: two-hybrid; bacterial two-hybrid (BACTH) in E. coli BTH101; Nrl1 or its truncations in pUT18C, RNA-processing factors in pKT25; β-galactosidase activity assay at 28 °C in Miller units; eight biological replicates.
The target in assay [5] is Nrl1(N-term), N-terminal region (1–159 aa), BACTH fusion (S. pombe) (UniProt O42975). Described as above.

Where “and” joins values, the source holds several entries; their conditions need not be identical. Equal entries are not always repeated.

In the case of Ctr1, BACTH fusion (natural protein), the β-galactosidase activity (Miller units) in assay [1] is 1080 Miller units; in assay [2], 708 Miller units; in assay [3], 977 Miller units and 1090 Miller units.
As to Mtl1, BACTH fusion (natural protein), the β-galactosidase activity (Miller units) in assay [1] was 1460 Miller units; in assay [4], 1560 Miller units; in assay [5], 1510 Miller units; in assay [3], 1440 Miller units and 1450 Miller units.
Turning to Ntr2, BACTH fusion (natural protein), the β-galactosidase activity (Miller units) in assay [1] was 583 Miller units; in assay [2], 495 Miller units; in assay [3], 739 Miller units and 467 Miller units.
